Measurements from the nanobody polyreactivity screen of Harvey et al. (2022).

Assay: yeast display, Sf9 membrane polyspecificity reagent, FACS + sequencing; frameworks hold sequencing errors
Outline: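 A synthetic nanobody library was expressed on Saccharomyces cerevisiae BJ5465 by galactose induction for 36–48 hours. The library was stained for 1 hour at 4 °C with 10% biotinylated, detergent-solubilized Sf9 membrane reagent and enriched with streptavidin microbeads before FACS. Low and high (top ~1%) gates were set on anti-HA fluorescence for expression and streptavidin fluorescence for reagent binding, and each polyreactivity label reflects the gate of origin.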

| Sequence | polyreactivity (PSR sort gate) |
| --- | --- |
| QVQVVESGGGFVQAGGSLRLSCAASGRTFAVYAMGWYTQAPGKEREFVATISVSDGSTYYADTVKGRFTISRDNAKNTVYLQMNSLKPEDTAVYYCAAQRWTVKYNYWGQGTQVTVSS | high polyreactivity |
| QVQLVESAGGLVQAGGSLRLSCDASGRTFPYNAMGWYRQAHGKERELVAGITGGGSTYYADSVKGRFTISRDNAKNNVYLQMNSLKPEDTAVYYCAADRYFLYATYPDVEFNYWGQGTQVTVSS | high polyreactivity |
| QFQLVESVGGLVQAGGSLRLSCAASGFTFPSYAMGWYRQAPGKERELVAAISYRGGRTYYADSVKWRFTISRDNAKNTVYLQMNSLKPEDTAVYYCNALFATVPPWGFDYWGQGTQVTVSS | high polyreactivity |
| QVQLVESGGGLVQAVGSLRLSCAASGTFARYAMGWYRQGPGKERELVAAISSRGGSTYYADSVKGRFTISRDNAENTVYLQMNSLKPEDTAVYYCAAAHQYYPEYYYWGQGTQVTVSS | high polyreactivity |
| QVQLVESGGGLVQAGGSLRLSCAASGRIFTWYAMGWYRQAPGKERELVAVISSGGSTYYADSVKGRFTISRDNAKNTVYLQMNSLKPEDTAVYYCAARRSYYGRSYYYWGQGTQVTVSS | high polyreactivity |
| QVQLVESGGGLVQAGGSLRLSCAASGRTFGPYEMGWYTQAPGKERELVASISSADSTYYADSVKGRFTISRDNAKNTVYLQMYSLKPEDTAVYYCAAPSVGYYDPTDFDYWGQGTQVTVSS | low polyreactivity |
| QVQLVESGGGLVQAGGSLRLSCAASGITLYEYAMGWYRQAPGKERELVAAISTSGGRTRYADSVKGRFTISRDNAKNTVYLQMNSLKPEDTAVYYCAASGFVQISNPRRDYWGQGTQVTVSS | high polyreactivity |
| QVQLVESGGGLVQAGRSLRLSCAASGFTFETYAMGWYRQAPGKERELVAAISDGGGDTYYADSVKGRFTISRDNAKNTVYLLMNSLKPEDSAVYYCAAEWDGNWSRGAGGYDYWGQGTQVTVSS | low polyreactivity |
| QVQLEDSGGGLVQAGGSLRLSCAASGSTFILNAMGWYRDAPGKERELVATISSSDTSTYYADSVKGRFTISRDNAKNTVYLQMNSLKPEDTAVYYCNADYYTTSYLQRVYHYGVEYDYWGQGTQVTVSS | low polyreactivity |
| QVQLVESGVCLVQAGGSLRLICAASGNTFYRYAMGWYRQAPGKERELVAAITGRGGSTYYADSVKGRFTISRDNAKNTVYLQMNSQKPEDTAVYYCAAESYGYGNDYWGQGTQVTVSS | low polyreactivity |
| QVQLVESGGGLVQAGGSLRLSCAASGRPFSSYAMGWYRQAPGKERELVARINSDGGRTYYADSVKGRFTISRDNAKDTVYLQMNSLKPEDTAVYYCAKRVVRGKVDYWGQGTQVTVSS | low polyreactivity |
| QVQLVESGGGLVQAGGSLRLSCAASGSIFYSYAMGWYRQAPGKERELVADITITGSTYYADSVKGRFTISRDNAKNTVYLQMNSLKPDDTAVYYCNAVLAPGGYDYWGQGTQVTVSS | low polyreactivity |
| QVQLVESGGGLVQAGGSLRLSCAASGSTFVQNAMGWYRQAPGKERELVAAISKSGGRTYYADSVKGRFTISRDNEKNTVYLQINSLNAEDTAVYYCARPYSRAYDYWGQGTQVTVSS | high polyreactivity |
| QVQLVESGGGLVQAGGSLRLSCAASGRTFYRNAMGWYRQAPGKERELVAAISRGDSTYYADSVKGRFTNSRDNAKNTVYLQMNILIPEDTAVYYCAKRARRIGDVNMGSWGQGTQVTVSS | low polyreactivity |
| QVQLVESGGGLVQAGGSLRLSCAASGRTFNNYAMGWYRQAPGKERELVASIRKNGGSTYYADSVKGRFTISRDNAKNTVYLQMNSLKPEDTAVYYCGARYWGISRIFPSKYDYWGQGTQVTVSS | high polyreactivity |
| QVQLVESGGGLVQAGGSLRLSCAASGRIFFKNTMGWYRQAPGNESELVAAITSSGSSTYYADSVKARFTISRDNSKNNVYLQMNSLKPEDTAVYYCNALTWDHSRTGVDYWGQGTQVTVSS | low polyreactivity |
| QVQLVESGGGLVQAGGSLRLSCAASGSIFSLNAMGWYRQAPGKERELVAAISGRGGSTYYADSVKGRFTISRDNAKNTVYLQMNSLKPEDTAVYYCAARFSRTFLGYYYWGQGTQVTVSS | high polyreactivity |
| QVQLVESGGGLVQAGGSLRLSCAASGSIFREYAMGWYRQAPGKERELVAAITKSGGRTYYADSVKGRFTISRDNAKNTVYLQMNSLKPEDTAVYYCAADSRNSRQHTSYNRLNYWGQGTQVTVSS | high polyreactivity |
| QVQLVESWGGLFQAGGSLRLSCAASGSTFIYNAMGWYRKAPGKERELVAAITWNYGSTYYADSVKGRFTISRDNANNTVYLQMNSLKPEDTAVYYCAADFTIPYWDANFDYWGQGTQVTVSW | low polyreactivity |
| QVQLVESGGGLVQAGGSLRLSCAASGFTFPSYAMGWYRQAPGKERELVAAISYRGGRTYYADSVKGRFTISRDNAKNTVYLQMNSLKPEDTAVYYCAAKGWYFGYGRYGYWGQGTQVTVSS | high polyreactivity |
| QVQLVESGGGLFQAGGSLRLSCAPSGIFRYYVMGWYIQAPGKERELVAAISWGGGSTYYADSVKGRFTISRDNPKNTVYLQMNSLKPEDTAVYYCAARDLRKLYSRYPYYYWGQGTQVTVSS | high polyreactivity |
| QVQLVESGGGLVQAGGSLRISCAASGRTCNHYTMGWYRPAPGKERELVAAITSGGSTYYADSVKGRFTISRDNAKNTVYLQMNSLKPEDTAVYYCARVRPLYHYSRYDYWGQGTQVTVSS | high polyreactivity |

| Sequence | polyreactivity (PSR sort gate) |
| --- | --- |
| QVQLVESGGGLVQAGGSLRVSCAASGRTSSINAMGWYREAPGKERELVAVITGRGGSTYYADSVKGRCTISRDNAKNTVYLQINSLKPEDTAVYYCAARRVPSVSGTYDYWGQGTQVTVSS | high polyreactivity |
| QVQLVESGGGLVQAGGRLRLSWAASGSTFFGNAMGWYRQAPGKERELVAVITKGGGSTYYADSVKGRFTISRDNAKNTVYLQMNSLKPEDTAVYYCAKTYTSGYHRRYDYWGQGTQVTVSS | low polyreactivity |
| QVQLVESGGGLVQAGGSLRLSCAASGSTFYAYDMGWYRQAPGKERELVAAISSGGSTYYADSVKGRFTISRDNAKNTVYLQMNSLKPEDTAVYYCATEYTYELEASEPSDYDYWGQGTQVTVSS | low polyreactivity |
| QVQLVESGGGLVQAGGSLRLSCAASGSIFGIYARGWYRQAPGKEREFVATITLGGGNTYYADSVKGRFTISRDYAKNTVYLQMNSLKPEDTAVYYCAARYFGLKRYDDYWGQGTQVTVSS | high polyreactivity |
| QVQLVESGGGLVQAGGSLRLICAPSGIIFTSNTMGWSRQAPGNERECVASINWNGSSTYADSVKGRFTISRDIAKNTVYLQMNSLKPEDTAVFYCNADYNRNSVQFSLYDYWGQGTQVTVSS | low polyreactivity |
| QVQLVESGGGLVQAGGSLRLSCAACGRIFTYNAMGWYRQAPGKERELVAAISSSGGRTYYADSVKGRFTISRDNAKNTLYLEMNSLKPEDTAVYYCARAYREGGRTQRGDYWGQGTQVTVSS | high polyreactivity |
| QVQLVESGGGLVQAGGSLRLSCAASGSIFSYYGMGWYRQAPGKERELVAAITDGDGTNYADSVKGRFTISRDNAKNTVYLQMNSLKPEDTAVYYCARDDRDIRGESGREGFLYDYWGQGTQVTVSS | low polyreactivity |
| QVQLVESGGGLVQAGGSLRLSCAASGRIFFRYVMGWYRPAPGKERELVATSTRSGGTTYYADSVKGRFTISRDNAKNTVYLQMNSLKPEDTAVYYCATDYTYHRVGPLYGFWGQGTQLTVSS | low polyreactivity |
| QVQLVESGGGLVQAGGSLRLTCAASGLILYWYAMGLYRQAPGTEMELVAAISISGGSTYYADSVKGRFTISRDNAKNTVYLQMNSLKPEDTAVYYCAAVYFYSWEGDGDYWGQGTQVTVSS | low polyreactivity |
| QVQLVESGGGLVQAGGILRLRCAASGLTFVYYAMGWYRQAPGKERELVAGITSRGGRTYYADSVKGRFTISRDNAKNTVYLQMNSLKPEDTAGYYCNAVDRYNRFDYWGQGTQVTVSS | high polyreactivity |
| QVQLVESGAGLVQAGGSLRLSCAASGFIFYYYAMGRYRPAPGKERELVAAIDSSGGDTYFADSVKGRFSISRDHAKNTVYLQMNSLKPEDTAVYYCNARQRLISLYGNRLTYGYWGQGTQVTVSS | high polyreactivity |
| QVQLVETGGGLFQAGGSLRLSCAASGFSFGRYAMGWYRQAPGKERELVAAISRGGSSTYYADSVKGRFTISRDTAKNTVYLQMNSLKPEDTAVYYCNKVIIWARFDYWGQGTQVTVSS | high polyreactivity |
| QVQLVESGGGLVQAGGSLRLSCAASGFIFVRYTMGWYRQAPGKERELVAAISRSSDSTYYADSVKGRFSISRDNAKNTVYLQMNSLKPEVTAVYYCAAFSGFSPFRFYYWGQGTQVTVSS | high polyreactivity |
| QVQLVESGGGLVQAGGSLRLSCAASGSIFYRYAMGWYRQAPGKERELVAAISYSGGSTYYADSVKGRFTISRDNAKNTVYLQMNSQKPEDTAVYYCAKDYPPPISDYSRYYGYGYWGKGTQVTVSS | low polyreactivity |
| QVQLVESGGGLVQAGGSLRLSCAASGSIFGRYAMGWYRPAPGKDRELVAAISDDSSTNYADSVKGRFTISRDNAKHNDYLQMHSLKPEVTAVYYCNADSWRYVAEGLWREYDYWGQGTQVTVSS | low polyreactivity |
| QVQLVESGGGLFQAGGSLRLSCAASGSTFGWYGMGWYRHAPGKERELVAAISLSDGGTYYADSVKGRFTISRDNAKNTVYLQMNSLKPEDTAVYYCAADYYDSGWYGYWGQGTQVTVSS | high polyreactivity |
| QVQLVESGGGLVQAGGSLRLSCAASGRIFYSNAMGWYRQAPGKERELVAAIRWSGGRTYYADSVNGRFTISRDNAKNSVYLQMNSLKPEDTAGYYCNARGYSGVSGKYGYWGQGTQVTVSS | high polyreactivity |
| QVQLAESGGGLVQAGGSLRLSCAASGSILFNMGWYRQAPGKERELVAAIRYGGGRTYYADSVKGRFTISRDNAKNTVYLQMNSLKPEDTAVYYCAAPYKRNAGFDYWGQGTQVTVSS | low polyreactivity |
| QVQLVESGGGLVQAGGSLRLSCAASGSIFVTYAMGSYRQAPGKERELVAAITSIGGTTYYSDSVKGRFTISRDNAKNTVYLQMNSLKPEDTAVYYCAVDGGEFSSYGYWGQGTEVTVSS | low polyreactivity |
| QVQLVESGGGLVQAGGSLRLSCAASGSIFNQYAMGWYRQAPGKERELVAAISSGSTYYADSVKGRFIISRDNAETTVYLQMYSLKPEDTAVYYCNAYYVNYVSNYESWGQGTQVTVSS | high polyreactivity |
| QVQLVESGGGLVQAGGSLRLSCAASGSTFGPNAMGWYRQAPGKERELVATISSGGSTYYADSVKGRFTISRDNAKNTVYLQMNSLKPEDTAVYYCNVLWLRSRRKYDYWGHGTQVTVSS | low polyreactivity |
